In US20200216824A1, “REGULATING PROTEIN SPONTANEOUS RUPTURES” (Bowling Green State University, priority 2019, published 2020):
“Also recorded” adds a separate entry of the source.

Columns and labels:
calmodulin (CaM) = calmodulin (CaM) (Homo sapiens, UniProt P0DP23); assay: Effect of Ca2+ / EGTA on CaM rupture under AFM compressive force; settings: 1 mM CaCl2 for Ca2+; 2 mM EGTA buffer treatment
Experimental: (§1) In the experiment of compressive force manipulation on both Apo- and Ca^2+-ligated CaM, a modified AFM apparatus with an ultra-soft AFM tip was used to apply compressive force on a single protein molecule tethered to a glass coverslip through covalent bonding between the linker molecule and amino group of the protein, and its response was studied.
The same experiment was carried out on Ca^2+-ligated CaM. FIG. 14B represents the typical AFM compressive force curve on a Ca^2+-ligated single CaM molecule. […] Nevertheless, repeated rupture events on a single protein molecule have been noticed when a repeated force manipulation experiment on the same protein molecule has been carried out.
FIG. 29 illustrates the scheme of tethering single protein molecules on a cover glass surface. The cover glass (Gold Seal) was first cleaned and silanized with a mixture of (3-aminopropyl) trimethoxysilane, isobutyltrimethoxysilane with a ratio of 1:1000 dissolved in DMSO (10% v/v) for 12 hours, and then incubated in 10 nM dimethyl suberimidate in 50 mM PBS (pH 8.0) for 4 h. After washing with water and methanol, the glass slide was incubated in 10 nM CaM solutions (PBS, pH 7.4) for 4 h. […]
Typical compressive force curves were recorded under different conditions. […]

tau protein = tau protein (Homo sapiens, UniProt P10636); assay: Effect of cations on tau protein rupture under AFM compressive force; settings: buffer solution pH 7.4
Sequence of tau protein (P10636 1-441 isoform P10636-8): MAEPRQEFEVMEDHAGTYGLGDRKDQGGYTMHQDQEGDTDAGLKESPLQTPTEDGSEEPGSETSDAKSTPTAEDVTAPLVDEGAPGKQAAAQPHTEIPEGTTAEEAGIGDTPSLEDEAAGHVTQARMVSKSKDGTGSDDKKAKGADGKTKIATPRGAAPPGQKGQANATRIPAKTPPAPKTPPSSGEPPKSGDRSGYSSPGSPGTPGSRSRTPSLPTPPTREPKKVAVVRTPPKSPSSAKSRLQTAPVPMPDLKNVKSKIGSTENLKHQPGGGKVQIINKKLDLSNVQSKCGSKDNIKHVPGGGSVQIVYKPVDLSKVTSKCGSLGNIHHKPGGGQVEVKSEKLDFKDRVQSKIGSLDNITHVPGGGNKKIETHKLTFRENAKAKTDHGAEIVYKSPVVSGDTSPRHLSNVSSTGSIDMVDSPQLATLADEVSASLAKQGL
Source text: This gives the indication of the presence of two forms of tau protein under different ionic environment. Under K^+environment tau protein exists as a relatively rigid protein structure which is more prone to collapse under compressive force build up. […] In addition, it was also investigated whether this kind of spontaneous and simultaneous rupture of multiple proteins under close proximity can develop an entangled protein third state, a fusion state, and can be a plausible mechanism for protein aggregation.
The protein molecules were tethered to the cover glass through covalent bonding between the amine group of the protein and the linker molecule attached to the coverglass surface. All the force curves were recorded under buffer solution (pH 7.4). When the AFM tip apex touches the surface of the protein molecule it starts loading force on it, once the force reaches a threshold value it can no longer withhold the force and collapses (FIG. 16A). This kind of behavior exists in globular proteins such as HPPK, calmodulin, and others.
Without wishing to be bound by theory, it is believed that there is a comprehensive model for two types of protein structure responses under compressive forces (FIG. 18C, green curve). One is a balloon-like type, reflected by the stress-strain curve in FIG. 18C, which is more rigid in nature and show rupture under compressive force. […]

[1] = AFM compressive force rupture of single CaM molecules (CaM, Apo-CaM, Ca2+-ligated CaM); format: physicochemical
Experimental: The mean rupture force from the distributions are 25 pN and 47 pN for CaM and HPPK molecules, respectively. ΔG was also calculated for CaM rupture, which is about 25.6±7.3 kBT using Bell-Evans Model. The characteristic behavior is due to different structural rigidity and a different vector orientation of the mechanical force inside different protein molecules.
The experiments for CaM protein were repeated under five different ALRs. FIGS. 11A-11E show the statistical distribution of the threshold force at five different ALRs and characterization of CaM rupture force and loading energy. FIGS. 11A-11E show the rupture threshold force distribution in different loading velocities. […] Loading velocity is 100 nm/s. The threshold force required for a single CaM protein molecule to rupture increases from 12 pN to 35 pN as the approaching velocity increases from 50 nm/s to 1000 nm/s, and the threshold force increases linearly along with the log of ALR (FIG. 8D).
as §1
From this distribution, the rupture force was calculated to be around 70 pN. This rupture force is dependent on the AFM tip approaching velocity. To calculate the actual threshold force loading distance, i.e., the amount of structural change of the targeted Apo-CaM molecule under the process of compressive force loading to the threshold value, the force curves were analyzed considering two factors. First, the force loading process causes the tip bending. Because of that, the distance traveled by the electropiezo scanner exceeds the distance traveled by the AFM tip apex. The amount of tip bending in the process of force loading can be easily taken in account considering the force constant of the cantilever (30 pN/nm). Second, the contribution of the hydration shell around a protein molecule (1-2 nm of width) was considered. Therefore, in the recorded force curves, force increases in a much slower rate at the beginning which corresponds to the AFM tip interaction with the outer solvation layer of the protein. In the latter part of the force curve, the force increases in a much faster manner as the AFM tip starts to interact with the protein surface directly. Without wishing to be bound by theory, it is believed that the contact occurs when the compressive force loaded by the AFM tip reaches a certain value to counter the water solvation layer. […]
It is the distance between the point where force loading starts and the point where protein rupture occurs. […] The loading energy was calculated using Eloading=∫F(l)dl, where l is the compressive force loading distance, and F(l) is the loading force. […] Under this approximation, distribution of the calculated threshold compressive force loading energy was plotted in FIG. 15D using Eloading=(F threshold/2)×lthreshold and the mean value was around 32 kBT; however, the energy can be as low as 10 kBT with significant probability, which is biologically accessible from the local thermal fluctuations, such as in living mammalian cells at 37° C.
The loading energy was calculated using Eloading=J F(l)dl. l is the compressive force loading distance, and F(l) is the loading force curve. […]

[2] = AFM-FRET compressive force rupture of single HPPK molecules; format: physicochemical
Source text: 6-hydroxymethyl-7,8-dihydropterin pyrophosphokinase (HPPK) is a 158-residue monomer kinase enzyme protein which acts as a catalyst in the pyrophosphorylation reaction that drives the conversion of 6-hydroxymethyl-7,8-dihydropterin (HP) to 6-hydroxymethyl-7,8-dihydropterin pyrophosphate (HPPP) in the presence of ATP leading to the biosynthesis of folate cofactors. AFM was used to apply the compressive force on single protein molecules that are tethered on the glass cover slip surface at a controlled low density for single-molecule measurements. The enzyme HPPK was labeled with Cy3/Cy5 donor acceptor FRET pair on the amino acid residues 88 and 142, respectively (FIG. 2A), for probing the conformational changes of single protein under the compressive force.
The structural rupture of a single HPPK protein under compressive force applied by AFM tip was evaluated. […] When the AFM tip touches a single protein molecule, a compressive force is applied on the targeted protein, the force monotonically increases up to the level of about 60 pN (FIG. 1E), and then the force drops to zero abruptly.
As the piezo continues to approach toward the surface, the compressive force on the protein molecule increases; simultaneously, the protein starts to deform. When the force reaches a threshold value, the protein molecule suddenly ruptures, and the force on the tip releases to zero. As the AFM piezo continues to approach the glass coverslip surface, the tip on glass cannot move anymore, and as a result, piezo displacement causes tip bending. Therefore, from top to bottom, the cantilever bending distance=the piezo displacement D (nm); and the direct AFM instrumental electronic signal was measured and recorded for the loading force, F (mV). If the cantilever force constant k (pN/nm) is known, then, from the reading of measured f (mV), the protein rupture threshold force (pN)=[…] can be calculated.
To evaluate the relation between the compressive threshold force and the tip approaching velocity, the experiment was repeated under different approaching velocities (FIGS. 8-9). The threshold force for a single protein HPPK rupture increases as the apparent loading rate (ALR) by the AFM tip increases (FIG. 8B). ALR equals the approaching velocity times the force constant of AFM cantilever.
A two-state theoretical model, the Bell-Evans theory (eqn. 3), was used to analyze the linear dependence of rupture force with the logarithm of loading rate (FIG. 8B):
where F(r) is the most probable rupture force; kB, the Boltzmann's constant; T, temperature in Kelvin; Xβ is the distance between the bonded state and the transition state where the activation barrier is located; r, the loading rate; and ko the off-rate constant at zero force. The fitting gives two model parameters, kinetic off rate constant ko=12.2±4.5 s^−1 and the distance from the bound to transition state, Xβ=0.34±0.05 nm. Using ko, the barrier height of the transition state (ΔG) was also calculated using the following equation (eqn. 4), where h is the Planck's constant. ΔG of HPPK protein rupture is 27.0±9.8 kBT.
The cover glass (Gold Seal) was first cleaned and silanized with a mixture of (3-aminopropyl) trimethoxysilane and isobutyltrimethoxysilane with a ratio of 1:10000 dissolved in DMSO (10% v/v) for 12 hours, and then incubated in 10 nM dimethyl suberimidate in 50 mM PBS (pH 8.0) for 4 h. After washing by water and methanol, the glass slide was incubated in 10 nM HPPK solutions (PBS, pH 7.4) for 4 h. The possibility of two protein molecules locating underneath the AFM tip or in the same laser focus spot of around 300 nm diameters is almost zero. Cy3-Cy5 labeled HPPK molecules were tethered randomly on a cover glass surface and then incubated in PBS buffer (pH=7.4) in a homemade chamber immobilized on top of the microscope. To decrease photobleaching, added 0.8% D-glucose, 1 mg/mL glucose oxidase, 0.04 mg/mL catalase, and about 1 mM Trolox were added in the buffer as an oxygen scavenger. […]

[Ca+2] [Ca^2+]
rupture event of CaM under compressive force in presence of / after treatment with the substance (calmodulin (CaM)): does not go through a structural rupture; also recorded: No force drop was recorded

O=C(O)CN(CCOCCOCCN(CC(=O)O)CC(=O)O)CC(=O)O [EGTA, reference compound]
rupture event of CaM under compressive force in presence of / after treatment with the substance (calmodulin (CaM)): the rupture event recovers

[K+] [K^+, reference compound]
rupture event of tau protein under compressive force in presence of the cation (tau protein): the rupture event remains

[Mg+2] [Mg^2+]
rupture event of tau protein under compressive force in presence of the cation (tau protein): does not show such rupture events; also recorded: no rupture event was found; also recorded: No rupture event was observed

calmodulin [CaM]
rupture threshold force ([1]; 50 nm/s approaching velocity): 12 pN
loading energy ([1]; 100 nm/s loading velocity): 4-8 kBT
mean rupture force ([1]; 200 nm/s loading velocity): 25 pN
rupture threshold force ([1]; 1000 nm/s approaching velocity): 35 pN
ΔG of rupture ([1]; Bell-Evans Model): about 25.6±7.3 kBT

B1: 6-hydroxymethyl-7,8-dihydropterin pyrophosphokinase (protein, UniProt P26281 2-159, looked up)
2-amino-4-hydroxy-6-hydroxymet …: TVAYIAIGSNLASPLEQVNAALKALGDIPESHILTVSSFYRTPPLGPQDQPDYLNAAVALETSLAPEELLNHTQRIELQQGRVRKAERWGPRTLDLDIMLFGNEVINTERLTVPHYDMKNRGFMLWPLFEIAPELVFPDGEMLRQILHTRAFDKLNKW
notes: 158-residue monomer kinase enzyme protein
rupture threshold force (mean) ([2]; 200 nm/s approaching/loading velocity): 47 pN
threshold compressive force loading energy ([2]; 200 nm/s loading velocity): around 30 kBT
rupture threshold force ([2]; 2000 nm/s approaching velocity): 75 pN
distance from the bound to transition state Xβ ([2]; Bell-Evans fit): 0.34±0.05 nm
kinetic off rate constant ko ([2]; Bell-Evans fit of rupture force vs loading rate): 12.2 ± 4.5 s⁻¹
AFM piezoelectric displacement from start of force loading to rupture ([2]; average, FIG. 10C): 5.0˜6.0 nm
barrier height of the transition state ΔG of protein rupture ([2]; calculated from ko): 27.0±9.8 kBT
compressive force level reached before abrupt drop ([2]; single force curve, FIG. 1E): about 60 pN
